What was measured:
[1] = tested on: breast carcinoma MCF-7 cells; assay: Multiparametric flow cytometry of caspase activity and membrane integrity; type: cell-based; details: MCF-7 (wild type p53), 24 hours
Experimental: For multiparametric analysis of caspase-dependent cell death and loss of plasma membrane integrity, HeLa, MCF-7, or genetically engineered HCT116 cells (obtained from ATCC) were loaded with increasing concentrations of cell permeable control scrambled peptide or the Survivin peptide, harvested after culturing for 24 hours at 37° C., and analyzed for cell viability (propidium iodide, red channel) and active caspase-3 activity (CaspaTag™ from Intergen, Purchase, N.Y., green channel) by flow cytometry.
Experiments were performed as in Example 13, except that breast carcinoma MCF-7 cells (wild type p53) were analyzed by multiparametric flow cytometry of induction of caspase activity and loss of cell membrane integrity after intracellular loading with cell permeable Control (SEQ ID NO:25) or Survivin (SEQ ID NO:19) cell permeable peptide.

[2] = tested on: HFF, HGF, WS-1 normal cells; assay: MTT colorimetric viability assay, normal cell types; type: cell-based, human; details: 24 hours
Experimental: FIGS. 22A and 22B compares the effect of P31 (SEQ ID NO:19) or P33 (SEQ ID NO:25) on apoptosis of tumor cell lines (FIG. 22A) and normal cell lines (FIG. 22B). The following tumor cell lines DU145 (prostate cancer, circles), PC3 (prostate cancer, triangles), or HeLa (cervical carcinoma, squares) were treated with the indicated increasing concentrations of P31 peptide (solid symbols) or control P33 peptide (open symbols), harvested after 24 hours, and analyzed for cell viability using an MTT colorimetric assay. For normal cell types (right panel), HFF (human foreskin fibroblasts, squares), HGF (human fibroblasts, triangles) or WS-1 (human epithelial cells, circles) were treated with P31 (solid symbols) or control scrambled peptide P33, harvested after 24 hours and analyzed for overall cell viability by MTT colorimetric assay. All cell lines were from ATCC.

survivin-Hsp90 = biological target: T1, survivin-Hsp90 (Homo sapiens, UniProt P07900, S63T); assay: ELISA inhibition of recombinant survivin binding to Hsp90
T1 construct: GST-Hsp90 (amino acids 1-732); GST (N); made in house; host or cells: E. coli
Text: FIG. 31 is a graph depicting Hsp90 binding by Survivin peptides, measured by ELISA. Data are the mean±S.D. of two independent experiments.

RQIKIWFQNRRMKWKKKHSSGCAFL (Synthetically generated peptide) [P31]
caspase-dependent apoptosis [1]: induces apoptosis | cell death in normal cell types (MTT) [2]: did not induce cell death in any of the three normal cell types | inhibition of binding of recombinant survivin to Hsp90 (survivin-Hsp90): inhibited the binding of recombinant survivin to Hsp90 in a dose-dependent manner
